The numbers were not newly measured in US8853185B2, “Coferons and methods of making and using them” (Cornell University, priority 2008, dated 2014), which cites them from elsewhere.

Holding throughout (settings): read-out: DISSOCIATION CONSTANT (Kd)
For one series, the target named is T1, MKK4 (Homo sapiens, UniProt P45985).
T1 sequence (P45985 1-399): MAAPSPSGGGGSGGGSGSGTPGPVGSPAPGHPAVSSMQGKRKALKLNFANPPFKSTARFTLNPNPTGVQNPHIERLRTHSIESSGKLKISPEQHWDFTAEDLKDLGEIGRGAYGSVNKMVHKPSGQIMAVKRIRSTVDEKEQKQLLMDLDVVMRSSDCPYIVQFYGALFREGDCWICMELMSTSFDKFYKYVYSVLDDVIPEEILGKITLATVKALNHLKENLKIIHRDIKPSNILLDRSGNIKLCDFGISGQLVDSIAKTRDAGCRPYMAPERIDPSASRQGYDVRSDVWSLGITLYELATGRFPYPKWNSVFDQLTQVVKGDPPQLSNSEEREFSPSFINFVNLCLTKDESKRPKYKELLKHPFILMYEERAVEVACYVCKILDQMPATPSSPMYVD

Another series addresses p53 (Homo sapiens, UniProt P04637).
A further series addresses T2, NF2 (Homo sapiens, UniProt P35240).
T2 sequence (P35240 1-595): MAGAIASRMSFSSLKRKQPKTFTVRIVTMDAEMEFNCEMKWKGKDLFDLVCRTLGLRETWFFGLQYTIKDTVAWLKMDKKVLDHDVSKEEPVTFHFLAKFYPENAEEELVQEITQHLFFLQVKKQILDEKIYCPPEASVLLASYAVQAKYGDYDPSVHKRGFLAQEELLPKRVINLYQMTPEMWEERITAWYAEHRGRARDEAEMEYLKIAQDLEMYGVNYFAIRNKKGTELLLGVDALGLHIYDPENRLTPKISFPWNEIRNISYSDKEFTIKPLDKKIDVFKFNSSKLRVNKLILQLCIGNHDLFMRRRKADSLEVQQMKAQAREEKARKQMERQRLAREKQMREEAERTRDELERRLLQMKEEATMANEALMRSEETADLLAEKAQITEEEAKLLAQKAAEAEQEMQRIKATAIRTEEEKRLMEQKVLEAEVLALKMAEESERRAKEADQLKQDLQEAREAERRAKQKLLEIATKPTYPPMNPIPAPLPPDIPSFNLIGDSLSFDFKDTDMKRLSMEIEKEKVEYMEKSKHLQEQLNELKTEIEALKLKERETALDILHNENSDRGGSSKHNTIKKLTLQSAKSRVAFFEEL

A further series addresses T3, ASK1 (Homo sapiens, UniProt Q99683).
T3 sequence (Q99683 1-1374): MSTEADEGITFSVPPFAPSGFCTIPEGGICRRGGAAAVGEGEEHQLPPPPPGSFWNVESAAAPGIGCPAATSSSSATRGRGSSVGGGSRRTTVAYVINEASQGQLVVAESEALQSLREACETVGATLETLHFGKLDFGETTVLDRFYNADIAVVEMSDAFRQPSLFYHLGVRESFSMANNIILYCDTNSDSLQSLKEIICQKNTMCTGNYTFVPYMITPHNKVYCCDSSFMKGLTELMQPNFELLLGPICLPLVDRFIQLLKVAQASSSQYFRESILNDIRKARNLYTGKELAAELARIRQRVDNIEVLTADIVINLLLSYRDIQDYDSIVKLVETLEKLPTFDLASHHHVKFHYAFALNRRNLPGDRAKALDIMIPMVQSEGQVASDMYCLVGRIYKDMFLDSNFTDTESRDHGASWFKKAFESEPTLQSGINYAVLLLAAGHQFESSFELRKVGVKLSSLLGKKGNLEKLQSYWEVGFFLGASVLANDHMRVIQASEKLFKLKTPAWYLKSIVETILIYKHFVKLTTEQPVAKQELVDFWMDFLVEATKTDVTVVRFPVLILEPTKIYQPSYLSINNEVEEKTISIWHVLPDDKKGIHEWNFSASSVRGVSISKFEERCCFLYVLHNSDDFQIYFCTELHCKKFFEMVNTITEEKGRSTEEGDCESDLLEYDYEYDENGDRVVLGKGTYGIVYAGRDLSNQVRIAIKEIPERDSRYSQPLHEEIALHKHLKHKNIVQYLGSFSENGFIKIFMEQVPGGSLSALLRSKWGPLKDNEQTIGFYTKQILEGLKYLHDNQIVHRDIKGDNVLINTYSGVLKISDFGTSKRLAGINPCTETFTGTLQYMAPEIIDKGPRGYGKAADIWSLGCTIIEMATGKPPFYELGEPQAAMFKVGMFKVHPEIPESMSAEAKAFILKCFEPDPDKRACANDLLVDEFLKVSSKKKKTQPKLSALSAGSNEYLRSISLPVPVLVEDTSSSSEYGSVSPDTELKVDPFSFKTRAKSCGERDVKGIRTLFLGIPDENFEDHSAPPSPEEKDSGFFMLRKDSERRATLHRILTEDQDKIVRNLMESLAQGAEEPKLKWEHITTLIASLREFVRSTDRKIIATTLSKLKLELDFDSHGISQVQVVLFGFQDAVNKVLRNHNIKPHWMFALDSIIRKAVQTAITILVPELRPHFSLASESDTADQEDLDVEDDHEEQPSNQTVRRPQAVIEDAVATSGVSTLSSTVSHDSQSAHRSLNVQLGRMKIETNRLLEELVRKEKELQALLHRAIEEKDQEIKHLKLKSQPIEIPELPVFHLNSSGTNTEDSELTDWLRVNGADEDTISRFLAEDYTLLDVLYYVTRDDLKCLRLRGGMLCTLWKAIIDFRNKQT

The target in another series is GABP β (Homo sapiens, UniProt Q06547).
Sequence of GABP β (Q06547 whole entry): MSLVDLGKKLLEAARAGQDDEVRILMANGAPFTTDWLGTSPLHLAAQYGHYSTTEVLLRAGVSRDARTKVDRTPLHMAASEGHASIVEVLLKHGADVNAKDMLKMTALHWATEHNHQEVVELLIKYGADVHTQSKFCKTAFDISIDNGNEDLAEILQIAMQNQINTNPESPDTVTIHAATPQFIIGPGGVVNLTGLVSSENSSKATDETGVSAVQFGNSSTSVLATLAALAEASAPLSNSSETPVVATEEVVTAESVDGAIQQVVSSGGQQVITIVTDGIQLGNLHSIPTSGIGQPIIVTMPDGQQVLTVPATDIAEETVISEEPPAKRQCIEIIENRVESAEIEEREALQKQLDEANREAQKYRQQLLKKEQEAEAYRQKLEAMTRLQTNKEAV

Sequence of p53 (P04637 whole entry, species assumed): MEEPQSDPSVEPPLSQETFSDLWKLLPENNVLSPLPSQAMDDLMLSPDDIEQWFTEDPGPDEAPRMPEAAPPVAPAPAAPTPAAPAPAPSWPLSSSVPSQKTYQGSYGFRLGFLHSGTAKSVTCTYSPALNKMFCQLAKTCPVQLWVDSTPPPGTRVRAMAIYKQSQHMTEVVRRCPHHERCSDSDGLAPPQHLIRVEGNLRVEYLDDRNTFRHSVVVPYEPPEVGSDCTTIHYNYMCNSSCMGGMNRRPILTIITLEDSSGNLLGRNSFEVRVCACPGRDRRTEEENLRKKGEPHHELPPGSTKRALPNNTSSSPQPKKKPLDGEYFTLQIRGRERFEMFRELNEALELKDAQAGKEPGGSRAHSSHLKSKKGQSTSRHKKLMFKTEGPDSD

B1: JNK3: binding partner of MKK4 (protein, UniProt P53779 1-464, looked up)
Mitogen-activated protein …: MSLHFLYYCSEPTLDVKIAFCQGFDKQVDVSYIAKHYNMSKSKVDNQFYSVEVGDSTFTVLKRYQNLKPIGSGAQGIVCAAYDAVLDRNVAIKKLSRPFQNQTHAKRAYRELVLMKCVNHKNIISLLNVFTPQKTLEEFQDVYLVMELMDANLCQVIQMELDHERMSYLLYQMLCGIKHLHSAGIIHRDLKPSNIVVKSDCTLKILDFGLARTAGTSFMMTPYVVTRYYRAPEVILGMGYKENVDIWSVGCIMGEMVRHKILFPGRDYIDQWNKVIEQLGTPCPEFMKKLQPTVRNYVENRPKYAGLTFPKLFPDSLFPADSEHNKLKASQARDLLSKMLVIDPAKRISVDDALQHPYINVWYDPAEVEAPPPQIYDKQLDEREHTIEEWKELIYKEVMNSEEKTKNGVVKGQPSPSGAAVNSSESLPPSSSVNDISSMSTDQTLASDTDSSLEASAGPLGCCR
For B1, the Kd with MKK4 is 35000 nM.

B2: HmtSSB: binding partner of p53 (protein, UniProt Q04837 17-148, looked up)
Single-stranded DNA-binding …: ESETTTSLVLERSLNRVHLLGRVGQDPVLRQVEGKNPVTIFSLATNEMWRSGDSEVYQLGDVSQKTTWHRISVFRPGLRDVAYQYVKKGSRIYLEGKIDYGEYMDKNNVRRQATTIIADNIIFLSDQTKEKE
Take B2: in the series with p53, the Kd is 12700 nM.

B3: MPP1: binding partner of NF2 (protein, UniProt Q00013 2-466, looked up)
55 kDa erythrocyte membrane …: TLKASEGESGGSMHTALSDLYLEHLLQKRSRPEAVSHPLNTVTEDMYTNGSPAPGSPAQVKGQEVRKVRLIQFEKVTEEPMGITLKLNEKQSCTVARILHGGMIHRQGSLHVGDEILEINGTNVTNHSVDQLQKAMKETKGMISLKVIPNQQSRLPALQMFMRAQFDYDPKKDNLIPCKEAGLKFATGDIIQIINKDDSNWWQGRVEGSSKESAGLIPSPELQEWRVASMAQSAPSEAPSCSPFGKKKKYKDKYLAKHSSIFDQLDVVSYEEVVRLPAFKRKTLVLIGASGVGRSHIKNALLSQNPEKFVYPVPYTTRPPRKSEEDGKEYHFISTEEMTRNISANEFLEFGSYQGNMFGTKFETVHQIHKQNKIAILDIEPQTLKIVRTAELSPFIVFIAPTDQGTQTEALQQLQKDSEAIRSQYAHYFDLSLVNNGVDETLKKLQEAFDQACSSPQWVPVSWVY
B3: in the series with NF2, the Kd is 3.7 nM.

B4: ASK1: binding partner of ASK1 (protein, UniProt Q99683 1-1374, looked up)
Mitogen-activated protein …: MSTEADEGITFSVPPFAPSGFCTIPEGGICRRGGAAAVGEGEEHQLPPPPPGSFWNVESAAAPGIGCPAATSSSSATRGRGSSVGGGSRRTTVAYVINEASQGQLVVAESEALQSLREACETVGATLETLHFGKLDFGETTVLDRFYNADIAVVEMSDAFRQPSLFYHLGVRESFSMANNIILYCDTNSDSLQSLKEIICQKNTMCTGNYTFVPYMITPHNKVYCCDSSFMKGLTELMQPNFELLLGPICLPLVDRFIQLLKVAQASSSQYFRESILNDIRKARNLYTGKELAAELARIRQRVDNIEVLTADIVINLLLSYRDIQDYDSIVKLVETLEKLPTFDLASHHHVKFHYAFALNRRNLPGDRAKALDIMIPMVQSEGQVASDMYCLVGRIYKDMFLDSNFTDTESRDHGASWFKKAFESEPTLQSGINYAVLLLAAGHQFESSFELRKVGVKLSSLLGKKGNLEKLQSYWEVGFFLGASVLANDHMRVIQASEKLFKLKTPAWYLKSIVETILIYKHFVKLTTEQPVAKQELVDFWMDFLVEATKTDVTVVRFPVLILEPTKIYQPSYLSINNEVEEKTISIWHVLPDDKKGIHEWNFSASSVRGVSISKFEERCCFLYVLHNSDDFQIYFCTELHCKKFFEMVNTITEEKGRSTEEGDCESDLLEYDYEYDENGDRVVLGKGTYGIVYAGRDLSNQVRIAIKEIPERDSRYSQPLHEEIALHKHLKHKNIVQYLGSFSENGFIKIFMEQVPGGSLSALLRSKWGPLKDNEQTIGFYTKQILEGLKYLHDNQIVHRDIKGDNVLINTYSGVLKISDFGTSKRLAGINPCTETFTGTLQYMAPEIIDKGPRGYGKAADIWSLGCTIIEMATGKPPFYELGEPQAAMFKVGMFKVHPEIPESMSAEAKAFILKCFEPDPDKRACANDLLVDEFLKVSSKKKKTQPKLSALSAGSNEYLRSISLPVPVLVEDTSSSSEYGSVSPDTELKVDPFSFKTRAKSCGERDVKGIRTLFLGIPDENFEDHSAPPSPEEKDSGFFMLRKDSERRATLHRILTEDQDKIVRNLMESLAQGAEEPKLKWEHITTLIASLREFVRSTDRKIIATTLSKLKLELDFDSHGISQVQVVLFGFQDAVNKVLRNHNIKPHWMFALDSIIRKAVQTAITILVPELRPHFSLASESDTADQEDLDVEDDHEEQPSNQTVRRPQAVIEDAVATSGVSTLSSTVSHDSQSAHRSLNVQLGRMKIETNRLLEELVRKEKELQALLHRAIEEKDQEIKHLKLKSQPIEIPELPVFHLNSSGTNTEDSELTDWLRVNGADEDTISRFLAEDYTLLDVLYYVTRDDLKCLRLRGGMLCTLWKAIIDFRNKQT
B4: the Kd with ASK1 was 220 nM.

B5: GABP β: binding partner of GABP β (protein, UniProt Q06547 2-395, looked up)
GA-binding protein subunit …: SLVDLGKKLLEAARAGQDDEVRILMANGAPFTTDWLGTSPLHLAAQYGHYSTTEVLLRAGVSRDARTKVDRTPLHMAASEGHASIVEVLLKHGADVNAKDMLKMTALHWATEHNHQEVVELLIKYGADVHTQSKFCKTAFDISIDNGNEDLAEILQIAMQNQINTNPESPDTVTIHAATPQFIIGPGGVVNLTGLVSSENSSKATDETGVSAVQFGNSSTSVLATLAALAEASAPLSNSSETPVVATEEVVTAESVDGAIQQVVSSGGQQVITIVTDGIQLGNLHSIPTSGIGQPIIVTMPDGQQVLTVPATDIAEETVISEEPPAKRQCIEIIENRVESAEIEEREALQKQLDEANREAQKYRQQLLKKEQEAEAYRQKLEAMTRLQTNKEAV
Turning to B5, the Kd with GABP β was 600 nM.
